# Reference: patent US20180134786A1 (TOHOKU UNIVERSITY, published 2018)
# T1: human podocalyxin expressed on cancer cells (human, UniProt O00592 23-558)
# T1 construct: Podocalyxin on cancer cells; also called hPODXL; PODXL
# T1 sequence: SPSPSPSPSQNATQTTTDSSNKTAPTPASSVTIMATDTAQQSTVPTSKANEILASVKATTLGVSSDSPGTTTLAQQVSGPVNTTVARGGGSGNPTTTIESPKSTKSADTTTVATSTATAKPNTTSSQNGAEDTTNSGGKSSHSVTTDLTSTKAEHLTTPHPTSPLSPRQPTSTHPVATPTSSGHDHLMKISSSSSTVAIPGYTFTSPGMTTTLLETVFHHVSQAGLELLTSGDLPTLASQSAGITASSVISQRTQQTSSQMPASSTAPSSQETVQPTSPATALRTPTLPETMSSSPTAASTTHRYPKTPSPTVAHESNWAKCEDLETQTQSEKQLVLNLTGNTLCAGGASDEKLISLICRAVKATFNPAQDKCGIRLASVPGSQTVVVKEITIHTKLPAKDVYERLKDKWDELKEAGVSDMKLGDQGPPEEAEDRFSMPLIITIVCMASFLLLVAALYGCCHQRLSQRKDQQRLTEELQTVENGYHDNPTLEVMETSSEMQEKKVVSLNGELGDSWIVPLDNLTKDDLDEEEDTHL
# How the values were obtained:
# [1] = biological target: T1, human podocalyxin expressed on cancer …; assay: immunohistochemistry on breast cancer tissue array, 5 µg/mL
# Protocol: Various paraffin sections were deparaffined in xylene and ethanol solutions. The resulting sections were subjected to antigen activation in an autoclave by using a citrate buffer having pH 6.0 (product of Dako). Endogenous peroxidase was inactivated with 3% H₂O₂. After blocking with SuperBlock (product of Thermo Fisher) at room temperature for 10 minutes, the primary antibody was reacted at a concentration of from 5 to 10 μg/mL at room temperature for one hour. After amplification using a LSAB kit (product of Dako), LSAB2 (product of Dako), or Envision+ (product of Dako), color was developed using DAB (product of Dako).
# Podocalyxin is known to be expressed highly in breast cancer. PcMab-6 and an anti-podocalyxin antibody (polyclonal antibody: product of R&D) were therefore reacted with a breast cancer tissue array (product of US Biomax) at a concentration of 5 μg/mL. […] Similarly, a difference in reactivity with breast cancer between PcMab-6 and PcMab-47 was investigated. […] It has therefore been confirmed that also in Immunohistochemistry, PcMab-6 is CasMab.
# [2] = biological target: T1, human podocalyxin expressed on cancer …; assay: flow cytometry on LN229/hPODXL, CHO culture supernatant
# Protocol: A CRISPR/Cas plasmid of a glycosyltransferase (FUT-8) that transfers a core fucose was introduced into CHO-s cells (product of Thermo Scientific) and CHO-s-fut8-knock out cells were established. pCAG-hIgG1hG2b/PcMab-6HVH (G418)/pCAG-hIgCK/PcMab-6LVL (zeocin) (each 2.5 μg) or pCAG-hIgG1hG2b/PcMab-47HVH (G418)/pCAG-hIgCK/PcMab-47LVL (zeocin) (each 2.5 μg) were mixed and transfected into 1×10⁵ CHO-s/fut8-knock out cells (corresponding to 1 well of a 6-well plate) by the method of Lipofectamin LTX. After 24 hours, selection of transfected cells was started on a medium containing 500 μg/mL of Zeocin and 1 mg/mL of G418. The reactivity of the culture supernatant of the selected cells with the LN229 cells having therein forcibly expressed podocalyxin (LN229/hPODXL) was confirmed by flow cytometry.
binding result [1],binding result [2],Binder
binds,–,"PcMab-47 (antibody, mouse IgG1, kappa, Mouse monoclonal antibody; also called cancer-nonspecific anti-podocalyxin antibody) heavy: QVQLQQSAAELARPGASVKMSCKASGYTFTNYTIHWVKQRPGQGLEWIGFINPTSGYSDFNQKFKAKTTLTADKSSSTAHMQLTSLTSEDSAVYYCARLFAPAYWGQGTLVTVSAAKTTPPSVYPLAPGSAAQTNSMVTLGCLVKGYFPEPVTVTWNSGSLSSGVHTFPAVLQSDLYTLSSSVTVPSSTWPSETVTCNVAHPASSTKVDKKIVPRDCGCKPCICTVPEVSSVFIFPPKPKDVLTITLTPKVTCVVVDISKDDPEVQFSWFVDDVEVHTAQTQPREEQFNSTFRSVSELPIMHQDWLNGKEFKCRVNSAAFPAPIEKTISKTKGRPKAPQVYTIPPPKEQMAKDKVSLTCMITDFFPEDITVEWQWNGQPAENYKNTQPIMDTDGSYFVYSKLNVQKSNWEAGNTFTCSVLHEGLHNHHTEKSLSHSPGK light: QIVLTQSPAIMSASLGERVTMYCTASSSVSSSYLHWYQQKPGSSPKLWIYGTSNLASGVPARFSGSGSGTSYSLTISSMEAEDAATYYCHQYHRPPLTFGAGTKLELKRADAAPTVSIFPPSSEQLTSGGASVVCFLNNFYPKDINVKWKIDGSERQNGVLNSWTDQDSKDSTYSMSSTLTLTKDEYERHNSYTCEATHKTSTSPIVKSFNRNEC"
–,binds,"mouse-human chimeric PcMab-47 antibody (chPcMab-47) (antibody, VH/VL of PcMab-47 with human IgG1 CH1-hinge-CH2-CH3 and human kappa CL, expressed in CHO cells; The entries may include the signal peptide; also called chPcMa47) heavy: not shown light: QIVLTQSPAIMSASLGERVTMYCTASSSVSSSYLHWYQQKPGSSPKLWIYGTSNLASGVPARFSGSGSGTSYSLTISSMEAEDAATYYCHQYHRPPLTFGAGTKLELKRTSTVAAPSVFIFPPSDEQLKSGTASVVCLLNNFYPREAKVQWKVDNALQSGNSQESVTEQDSKDSTYSLSSTLTLSKADYEKHKVYACEVTHQGLSSPVTKSFNRGEC"
